One molecule from US20210063414A1, “METHODS FOR PREVENTING AND/OR TREATING BONE LOSS CONDITIONS BY MODULATING IRISIN” (Dana-Farber Cancer Institute, Inc., priority 2018, published 2021) can be followed below.

Assay [1] deals with T1, MLO-Y4 cell surface proteins (Mus musculus, UniProt P35762).
T1 construct: endogenous in cells; host or cells: MLO-Y4
T1 sequence (P35762 1-236): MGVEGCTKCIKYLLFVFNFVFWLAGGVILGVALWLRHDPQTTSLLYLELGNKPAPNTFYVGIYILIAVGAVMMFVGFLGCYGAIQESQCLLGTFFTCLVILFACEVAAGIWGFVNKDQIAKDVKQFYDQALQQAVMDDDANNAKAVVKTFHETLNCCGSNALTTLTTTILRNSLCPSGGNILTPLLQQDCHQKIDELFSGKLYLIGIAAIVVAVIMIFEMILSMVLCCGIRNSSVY
Kind of assay: Crosslinking/co-immunoprecipitation/mass spectrometry (TMT quantitative proteomics) to identify irisin receptors. Format: binding. The note with it: TMT ratio, Cd81 CD81 antigen. The gist of the method:
(§1)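 Mouse MLO-Y4 cells were switched to serum-free FreeStyle medium for 4 h, chilled, then exposed to 10 nM His-tagged irisin (or adipsin as control) for 20 min. Cells were crosslinked with 1.5 mM DTSSP (30 min, ice), and bound proteins were pulled down on Ni-NTA and eluted with 250 mM imidazole. Eluates were separated by SDS-PAGE, trypsin-digested in gel, TMT 6-plex labelled and quantified by MS3-based LC-MS/MS on an Orbitrap Fusion Lumos.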

In assay [2] the target is T2, MLO-Y4 cell surface proteins (Mus musculus, UniProt P97350).
T2 construct: endogenous in cells; host or cells: MLO-Y4
T2 sequence (P97350 1-728): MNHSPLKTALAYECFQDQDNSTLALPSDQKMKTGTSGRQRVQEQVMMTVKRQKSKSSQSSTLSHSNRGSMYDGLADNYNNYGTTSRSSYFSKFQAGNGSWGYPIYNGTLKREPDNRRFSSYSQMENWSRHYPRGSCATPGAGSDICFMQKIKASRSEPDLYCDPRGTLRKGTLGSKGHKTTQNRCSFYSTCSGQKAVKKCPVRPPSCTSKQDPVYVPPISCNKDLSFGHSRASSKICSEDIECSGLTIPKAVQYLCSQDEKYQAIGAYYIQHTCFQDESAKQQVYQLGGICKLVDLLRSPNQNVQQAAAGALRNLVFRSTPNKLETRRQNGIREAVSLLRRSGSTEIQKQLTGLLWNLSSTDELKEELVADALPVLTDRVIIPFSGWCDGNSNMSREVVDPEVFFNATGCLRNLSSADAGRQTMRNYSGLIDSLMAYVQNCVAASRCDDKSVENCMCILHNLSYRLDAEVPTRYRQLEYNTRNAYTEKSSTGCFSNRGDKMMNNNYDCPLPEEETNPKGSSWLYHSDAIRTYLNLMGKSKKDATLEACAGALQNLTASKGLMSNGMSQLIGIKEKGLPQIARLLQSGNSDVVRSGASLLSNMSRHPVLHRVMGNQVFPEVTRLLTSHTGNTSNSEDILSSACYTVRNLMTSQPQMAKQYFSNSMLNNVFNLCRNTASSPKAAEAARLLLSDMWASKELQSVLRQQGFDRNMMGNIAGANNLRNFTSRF
Described as above. The note with it: co-precipitated protein Pkp1 (PKP1_MOUSE). Format: binding. In outline:
as §1

B1: irisin: secreted cleaved form of FNDC5; recombinant human/mouse irisin with C-terminal his tag produced in HEK293 cells (protein)
chain: DSPSAPVNVTVRHLKANSAVVSWDVLEDEVVIGFAISQQKKDVRMLRFIQEVNTTTRSCALWDLEEDTEYIVHVQAISIQGQSPASEPVLFKTPREAEKMASKNKDEVTMKE
modifications: left off: small tags and cut ends
notes: secreted cleaved form of FNDC5; recombinant human/mouse irisin with C-terminal his tag produced in HEK293 cells
Turning to B1, the irsin/adipsin in assay [1] came to 4.05. Moreover, in assay [2], the TMT signal-to-noise ratio stood at 8.015 and the “irisin/adipsin TMT signal-to-noise ratio” value worked out at 0.082.
